# Data: patent publication US20160257711A1 (BOARD OF TRUSTEES OF THE UNIVERSITY OF ILLINOIS, published 2016)
# B1: Gα13 (G protein α subunit), endogenous protein of human platelets (other)
# chain: MADFLPSRSVLSVCFPGCLLTSGEAEQQRKSKEIDKCLSREKTYVKRLVKILLLGAGESGKSTFLKQMRIIHGQDFDQRAREEFRPTIYSNVIKGMRVLVDAREKLHIPWGDNSNQQHGDKMMSFDTRAPMAAQGMVETRVFLQYLPAIRALWADSGIQNAYDRRREFQLGESVKYFLDNLDKLGEPDYIPSQQDILLARRPTKGIHEYDFEIKNVPFKMVDVGGQRSERKRWFECFDSVTSILFLVSSSEFDQVLMEDRLTNRLTESLNIFETIVNNRVFSNVSIILFLNKTDLLEEKVQIVSIKDYFLEFEGDPHCLRDVQKFLVECFRNKRRDQQQKPLYHHFTTAINTENIRLVFRDVKDTILHDNLKQLMLQ
# notes: Endogenous Gα13 in detergent lysates of washed human platelets, precipitated or detected with anti-Gα13 antibody; also called G protein subunit Gα13
# Target: T1, integrin αIIbβ3 of human platelets (human, UniProt P08514 32-1039)
# T1 construct: whole, on cells; Endogenous receptor; also called integrin β3; glycoprotein IIb-IIIa
# Test: co-IP from platelet lysates and GST pull-downs
binder,measurement,value
B1,binding result,binds
